Experimental data: the RNAGym collection of RNA variant scans (doi:10.7554/elife.90254)

B1: LINE1-full (parent)
chain: UACGUAGGUGGUUUUCCCCUGAUAGUGCUAAGGGGGCCUGGAAGUUUGGACUGGGCAGAGCUCAACACAGCGUGGCAAAGUGGCUGUGGCUAGACUGCCUCUCUGGAUUCCUCGUCACUCAGCAGGGCAUCUCUGAGAGAAAUGCC

Variants of: B1
Test: self-cleavage, relative activity (ratio to wild type); higher = more cleavage; in vitro, sequencing; the parent is a self-cleaving ribozyme

In order of rising self-cleavage:
1. G105A A141U  0
2. U104G U130A  0
3. U104C U115A  0.22
4. G105U A124U  0.22
5. U104G A140C  0.28
6. U102C C128A  0.39
7. U102C A107U  0.42
8. U104A A140G  0.47
9. C103U U109C  0.53
10. U102G A121G  0.59
11. U104A U119G  0.64
12. A107G A117C  0.66
13. C103A U112G  0.72
14. G106A U119A  0.75
15. U104C U134G  0.75
16. C103A G135A  0.87
17. G105A A141G  0.87
18. U104A U143A  0.88
19. U102G A129G  0.88
20. U104A A107G  0.9
21. A107G A140U  0.94
22. U102C U104C  0.95
23. G106U A129G  0.98
24. C103A U112C  1.01
25. U104G U132A  1.06
26. U102A U134A  1.06
27. C103U A138U  1.07
28. U102C A117U  1.07
29. U102C C113G  1.08
30. U102A G127A  1.08
31. U102A U143A  1.08
32. U104A G114U  1.09
33. U102C U143C  1.09
34. U104A C116A  1.11
35. U102C A124G  1.11
36. G105U U108A  1.12
37. U102A U108C  1.14
38. U104A  1.14
39. U104A U108C  1.14
40. U102C U112G  1.15
41. G106U G126A  1.15
42. U102C G144A  1.15
43. U102C G144C  1.17
44. U102C G106A  1.19
45. C103U G114A  1.19
46. U104G  1.19
47. C103U A107U  1.2
48. U102C G114A  1.21
49. U102C A129U  1.22
50. U102C G125U  1.23
51. C103A A140G  1.23
52. U102C U130C  1.24
53. G105A A142G  1.24
54. U102A U143C  1.25
55. U104G C123U  1.25
56. U104A A124U  1.25
57. G106U A117U  1.26
58. A107G A124U  1.27
59. U104A A129G  1.27
60. G106A A142U  1.29
61. G105A G127U  1.31
62. G106U U132C  1.31
63. U104A A117U  1.31
64. G105U G144A  1.31
65. A107G A136G  1.31
66. U102C U109A  1.31
67. U104A U112C  1.32
68. U102C U132A  1.34
69. U102C A136G  1.34
70. U104A C146U  1.35
71. U104A U134A  1.35
72. A107C U108A  1.36
73. U104G U134C  1.39
74. U104C U109C  1.39
75. C103U A136G  1.39
76. U104A U112A  1.4
77. C103U A117G  1.41
78. U102C A138G  1.42
79. U104A A142G  1.43
80. G106A U115C  1.43
81. G105A U134C  1.44
82. U102C U112A  1.44
83. C103U A140G  1.44
84. A107G A138U  1.44
85. U102C A140G  1.45
86. U102C U119A  1.45
87. A107G  1.46
88. U104C G127A  1.47
89. U104A U119C  1.47
90. U102C C113U  1.48
91. U102C C131A  1.48
92. U102C A140U  1.48
93. U104A G122C  1.48
94. C103U A138G  1.49
95. U104A U130C  1.51
96. U102A G125A  1.51
97. U104C G135A  1.52
98. U104C U109G  1.53
99. U102C U112C  1.53
100. G105U A140U  1.53
101. U104A U134C  1.53
102. G105A U134A  1.54
103. G105A U115C  1.54
104. C103U A124G  1.56
105. U104C A121G  1.56
106. U104C U143A  1.56
107. A107C  1.56
108. G106A U119C  1.58
109. G105A A117G  1.59
110. U102C C118U  1.59
111. U104C A121U  1.59
112. C103A A129G  1.59
113. U102C U143G  1.59
114. C103A A138G  1.6
115. U102C A117G  1.6
116. U102C U104G  1.6
117. G106A U108C  1.61
118. U104C A136G  1.62
119. U102C G114U  1.62
120. U102C C113A  1.63
121. U102C G122U  1.63
122. G106A U112A  1.64
123. U104C  1.65
124. U104C U112C  1.66
125. A107C U143C  1.67
126. U102C A107G  1.67
127. U102C C128U  1.67
128. U104C G125U  1.68
129. U102A U132C  1.69
130. U102C U119C  1.69
131. C103U U119C  1.7
132. U104C U130C  1.71
133. U102C C120U  1.71
134. U102C C116U  1.72
135. U104C C123A  1.73
136. U104C A117U  1.73
137. U104C A129U  1.73
138. G105A A117U  1.74
139. A107C G114A  1.74
140. U102C C110U  1.78
141. U102C G137A  1.8
142. G106A A124G  1.81
143. A107G A129U  1.84
144. A107G A117G  1.85
145. A107G A117U  1.85
146. G106A U134G  1.86
147. G106A U109C  1.86
148. U104C A107G  1.86
149. U104C A138G  1.87
150. U104C A138U  1.87
151. G106A G135U  1.88
152. U102A U115C  1.88
153. C103A U130C  1.9
154. G105U U109C  1.93
155. G105U U108C  1.98
156. U104C G144A  2.03
157. U104C U108A  2.04
158. U104C A129G  2.04
159. U102C A121U  2.05
160. U104C U143C  2.1
161. G106C U108C  2.2
162. U102C C120A  2.26
163. U104C C145G  2.3
164. C103U A117C  2.49
165. U102A U115G  2.51
166. U104C A124G  2.57
167. A107C U109C  2.7
